Assay [1] concerns the target NHP NPC1-C (Colobus guereza). The assay is described as follows: BLI; pH 5.5. (In general: Biolayer interferometry detects binding as a change in optical thickness at a sensor tip.)
For assay [2], the target named is T1, soluble human NPC1 domain C protein (UniProt O15118 372-622).
T1 chain: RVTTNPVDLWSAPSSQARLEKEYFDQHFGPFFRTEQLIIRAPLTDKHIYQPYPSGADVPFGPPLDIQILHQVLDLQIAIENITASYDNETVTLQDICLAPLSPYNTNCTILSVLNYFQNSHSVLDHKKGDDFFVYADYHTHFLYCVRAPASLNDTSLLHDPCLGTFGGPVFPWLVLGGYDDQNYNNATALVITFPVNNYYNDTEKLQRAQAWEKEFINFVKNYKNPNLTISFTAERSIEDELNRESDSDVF
The experiment in a line: BLI; pH 7.5.

In assay [3] the target is T1, soluble human NPC1 domain C protein. The assay is described as follows: BLI; pH 5.5.
For assay [4] the target is unchanged. The assay is described as follows: BLI; pH 7.5.

B1: 548 (antibody, V domains shown)
VH: EVQLQQSGAELVKPGASVKLSCTASGFNIKDTYMHWVKQRPEEGLEWIGRIDPADGNTEYVPKFQGKATITADTFSNTVYLQLSGLTSEDTAVYYCSRGYYWGQGTTLTVSS
VL: DIQMTQSPASLSASVGETVTITCRASENIYSYLAWYQQKQGKSPQLLVYNAKTLAEGVPSRFSGSGSGTQFSLKINSLQPEDFGIYYCQHHYGSPWAFGGGTKLEIK
Usually Kd stands for the equilibrium constant for the complex coming apart. Low readings indicate a tighter complex, high ones a looser complex. Turning to B1, the dissociation constant (Kd) in assay [1] is < 1 pM.

B2: mAb 548 (anti-human NPC1 domain C monoclonal antibody) (antibody, V domains shown)
VH: B1 VH
VL: B1 VL
As for B2, the Kd in assay [2], in assay [3] and in assay [4] was < 1 pM in each case.

(Values after US20200199202A1 (published 2020).)
